Entries after “also recorded” stand apart in the source; their conditions may differ.
Columns and labels:
[1] = test system: COLO 720E human ovarian carcinoma xenografts; assay: Anti-tumor effect of lorvotuzumab mertansine and gemcitabine in established subcutaneous COLO 720E xenografts (Example 1); type: in vivo, athymic nude mice; details: for % of tumor growth for treated vs. control (T/C) / anti-tumor activity rating (NCI standards): lorvotuzumab mertansine 11 mg/kg iv once weekly x3, gemcitabine 80 mg/kg ip every three days x4, combination same doses; for tumor regressions (any): six mice per group, single-agent groups
Source text: (§1) Mice were inoculated with human ovarian cancer cell lines and allowed to become established (average tumor size of about 100 mm^3) prior to treatment. Conjugate dosing is described based on antibody concentration. Efficacy is reported as both the % of tumor growth for treated vs. control (% T/C) and log cell kill (LCK) determined from the tumor doubling time and the tumor growth delay due to the treatment.
The anti-tumor effect of a combination of lorvotuzumab mertansine and gemcitabine was evaluated in an established subcutaneous xenograft model of ovarian cancer. Athymic nude mice were inoculated with COLO 720E human ovarian cancer cells (1×10^7 cells/animal) injected subcutaneously into the right flank. When the tumors reached about 110 mm^3 in size (10 days after tumor cell inoculation), the mice were randomly divided into four groups (six animals per group). A control group was treated with a single intravenous injection of PBS. A second group of mice were treated with the single agent lorvotuzumab mertansine at a dose of 11 mg/kg once weekly for three weeks (days 11, 18 and 25 post tumor cell inoculation) administered intravenously. The third group received single-agent gemcitabine administered intraperitoneally at a dose of 80 mg/kg every three days for a total of four injections (days 11, 14, 17 and 20 post tumor cell inoculation). A fourth group was treated with the combination of lorvotuzumab mertansine and gemcitabine with the same doses and routes of administration as for individual treatments. Tumor growth was monitored by measuring tumor size twice per week. Tumor size was calculated with the formula: length×width×height×½.

[2] = test system: COLO 720E human ovarian carcinoma xenografts; assay: Anti-tumor effect of lorvotuzumab mertansine and topotecan in established subcutaneous COLO 720E xenografts (Example 2); type: in vivo, athymic nude mice; parameters: key to anti-tumor activity rating (NCI standards): Percent T/C values less than or equal to 42% and/or LCK values of 0.5 or greater are considered active; percent T/C values less than 10% are considered highly active; details: for mice tumor free until the end of the study: day 120, six mice per group; for % of tumor growth for treated vs. control (T/C) / anti-tumor activity rating (NCI standards): lorvotuzumab mertansine 11 mg/kg iv once weekly x3, topotecan 0.7 mg/kg ip 5/2/5 schedule, combination same doses
Source text: Mice were inoculated with human ovarian cancer cell lines and allowed to become established (average tumor size of about 100 mm^3) prior to treatment. Conjugate dosing is described based on antibody concentration. Efficacy is reported as both the % of tumor growth for treated vs. control (% T/C) and log cell kill (LCK) determined from the tumor doubling time and the tumor growth delay due to the treatment. […] Athymic nude mice were inoculated with COLO 720E human ovarian cancer cells (1×10^7 cells/animal) injected subcutaneously into the right flank. When the tumors reached about 115 mm^3 in size (12 days after tumor cell inoculation), the mice were randomly divided into four groups (six animals per group). A control group was treated with a single intravenous injection of PBS. A second group of mice were treated with the single agent lorvotuzumab mertansine at a dose of 11 mg/kg once weekly for three weeks (days 12, 19 and 26 post tumor cell inoculation) administered intravenously. The third group received single-agent topotecan administered intraperitoneally at a dose of 0.7 mg/kg on a 5/2/5 schedule (daily×5, 2 days off, daily×5; days 12-16 and 19-23 post tumor cell inoculation). A fourth group was treated with the combination of lorvotuzumab mertansine and topotecan with the same doses and routes of administration as for individual treatments. Tumor growth was monitored by measuring tumor size twice per week. Tumor size was calculated with the formula: length×width×height×½.

[3] = test system: COLO 720E human ovarian carcinoma xenografts; assay: Anti-tumor effect of lorvotuzumab mertansine and DOXIL in established subcutaneous COLO 720E xenografts (Example 3); type: in vivo, athymic nude mice; parameters: key to anti-tumor activity rating (NCI standards): Percent T/C values less than or equal to 42% and/or LCK values of 0.5 or greater are considered active; percent T/C values less than 10% are considered highly active
Source text: as §1
The anti-tumor effect of a combination of lorvotuzumab mertansine and DOXIL® (i.e., PEGylated Liposomal Doxorubicin (PLD)) was evaluated in an established subcutaneous xenograft model of ovarian cancer. Athymic nude mice were inoculated with COLO 720E human ovarian cancer cells (1×10^7 cells/animal) injected subcutaneously into the right flank. When the tumors reached about 100 mm^3 in size (10 days after tumor cell inoculation), the mice were randomly divided into four groups (six animals per group). A control group was treated with a single intravenous injection of PBS. A second group of mice were treated with the single agent lorvotuzumab mertansine at a dose of 11 mg/kg once weekly for three weeks (days 10, 17 and […] post tumor cell inoculation) administered intravenously. The third group received single-agent DOXIL® at a dose of 11 mg/kg (single injection on day 10 post tumor cell inoculation) administered intravenously. A fourth group was treated with the combination of lorvotuzumab mertansine and DOXIL® with the same doses and routes of administration as for individual treatments. Tumor growth was monitored by measuring tumor size twice per week. Tumor size was calculated with the formula: length×width×height× 1/2.

[4] = test system: human xenograft preclinical models for ovarian cancer; details: no data given; cited from earlier work
[5] = lorvotuzumab mertansine 11 mg/kg iv once weekly x3, DOXIL 11 mg/kg iv single injection, combination same doses

## Nc1ccn([C@@H]2O[C@H](CO)[C@@H](O)C2(F)F)c(=O)n1 [gemcitabine, reference compound]
[1]
  % of tumor growth for treated vs. control (T/C): 77%
  anti-tumor activity rating (NCI standards): inactive
  tumor regressions (any): no regressions

## CC[C@@]1(O)C(=O)OCc2c1cc1n(c2=O)Cc2cc3c(CN(C)C)c(O)ccc3nc2-1 [topotecan, reference compound]
[2]
  mice tumor free until the end of the study: no tumor-free mice
  % of tumor growth for treated vs. control (T/C): 26%
  anti-tumor activity rating (NCI standards): active
[2]; six mice per group
  complete regression (CR): one of six

B1: lorvotuzumab mertansine: antibody-drug conjugate comprised of the CD56-binding monoclonal antibody huN901, the SPP linker, and the maytansinoid cytotoxic agent DM1 (conjugate, chains of the INN, looked up)
VH: QVQLVESGGGVVQPGRSLRLSCAASGFTFSSFGMHWVRQAPGKGLEWVAYISSGSFTIYYADSVKGRFTISRDNSKNTLYLQMNSLRAEDTAVYYCARMRKGYAMDYWGQGTLVTVSS
VL: DVVMTQSPLSLPVTLGQPASISCRSSQIIIHSDGNTYLEWFQQRPGQSPRRLIYKVSNRFSGVPDRFSGSGSGTDFTLKISRVEAEDVGVYYCFQGSHVPHTFGQGTKVEIK
modifications: SPP linker, DM1 maytansinoid
[1]
  % of tumor growth for treated vs. control (T/C): 38%
  anti-tumor activity rating (NCI standards): modest antitumor activity; also recorded: active
  tumor regressions (any): no tumor regressions
[2]
  mice tumor free until the end of the study: no tumor-free mice
  % of tumor growth for treated vs. control (T/C): 59%
  anti-tumor activity rating (NCI standards): inactive
[2]; six mice per group
  partial regression (PR): one of six
[3]; day 118, six mice per group
  mice remaining tumor free to the end of the study: one
[3]; [5]
  % of tumor growth for treated vs. control (T/C): 14%
  anti-tumor activity rating (NCI standards): active
[3]; six mice per group
  complete regressions (CR): one and one of six
[4]
  antitumor activity as a single agent: marked antitumor activity

— patent US20120269827A1, “Compositions and Methods for Treatment of Ovarian, Peritoneal, and Fallopian Tube Cancer” (ImmunoGen, Inc., priority 2011, published 2012)
